Assays:
[1] = tested on: homoserine transsuccinylase; test: Homoserine transsuccinylase activity test (Lee et al.), 5,5'-dithiobis(2-nitrobenzoic acid), absorption at 412 nm, with and without SAM; assay type: biochemical, E. coli; conditions: cell extract; 3 mM homoserine, 0.3 mM succinyl-CoA, 50 mM potassium phosphate buffer pH 7.5
Description: In order to determine the sensitivity of the activity of the different homoserine transsuccinylases to SAM, it is possible, for example, to carry out an activity test as described in Lee L. W. et al., J. Biol. Chem. 241, 5479-5480 (1966). In this method, the enzyme extract is incubated with homoserine and succinyl-CoA. After various times, a part of the test assay sample is stopped by adding it to a mixture of ethanol, water, and 5,5′-dithiobis(2-nitrobenzoic acid). The absorption is determined photometrically at 412 nm. The described test is suitable, for example, for determining the sensitivity of the homoserine transsuccinylases to SAM.
The influence of SAM on the activities of the different homoserine transsuccinylases was determined by quantifying the activity in the presence of different concentrations of SAM (Cl salt, Sigma). The cell extracts were grown and prepared as described in Example 3. The activity test was carried out as described in Lee L. W. et al., J. Biol. Chem. 241, 5479-5480 (1966), with the enzyme extract being incubated with 50 mM potassium phosphate buffer, pH 7.5, 3 mM homoserine and 0.3 mM succinyl-CoA. After various times, 100 μl volumes of test mixture were stopped by adding them in each case to a mixture of 400 μl of ethanol, 400 μl of water and 100 μl of 10 mM 5,5′-dithiobis(2-nitrobenzoic acid). After the resulting mixture had been incubated at room temperature for 5 minutes, the absorption was determined photometrically at 412 nm. After the protein concentration had been determined, the enzyme activity was calculated using the extinction coefficient. The Ki was determined as a measure of the ability of SAM to inhibit the activity.

[2] = tested on: homoserine transsuccinylase; test: Homoserine transsuccinylase enzyme test using cell extracts, decrease in extinction at 232 nm, with and without L-methionine; assay type: biochemical, E. coli; conditions: cell extract of E. coli W3110 transformants; 1 mM homoserine, 0.1 mM succinyl-CoA, 50 mM Tris/Cl pH 7.6
From the text: Any method which enables the activity of the enzyme to be determined in the presence of L-methionine or SAM can be used for determining the sensitivity of the homoserine transsuccinylase to L-methionine and/or SAM. For example, the homoserine transsuccinylase activity can be determined by following the method described by Kredich and Tomkins for determining the activity of serine acetyltransferases (Kredich N. M. and Tomkins G. M., J. Biol. Chem. 241, 4955-4965 (1966)). The enzyme activity is measured in an assay sample which contains homoserine and succinyl-CoA. The reaction is started by adding enzyme and monitored in a spectrophotometer by way of the decrease in the extinction at 232 nm which results from cleavage of the thioester bond in the succinyl-coenzyme A. The described test is suitable for determining the sensitivity of the homoserine transsuccinylases to methionine. The inhibition of homoserine transsuccinylase activity is tested in the presence of different concentrations of L-methionine in the reaction mixture.
The activity, and the influence of L-methionine on the activity, of the different homoserine transsuccinylases were determined by means of an enzyme test using cell extracts in which the respective proteins had been produced. For this, the corresponding plasmids, encoding altered homoserine transsuccinylases, were introduced, by transformation, into the E. coli strain W3110 (ATCC 27325) using methods known to the skilled person. The transformation mixture was spread on LB-tetracycline agar plates (10 g of tryptone/l, 5 g of yeast extract/l, 5 g of NaCl/l, 15 g of agar/l and 15 mg of tetracycline/l) and incubated at 37° C. overnight. The resulting transformants were grown in SM1 medium (for 1 l of medium: CaCl2×2H2O, 0.0147 g, MgSO4×7H2O, 0.3 g, Na2MoO4×2H2O, 0.15 mg, H3BO3, 2.5 mg, CoCl2×6H2O, 0.7 mg, CuSO4×5H2O, 0.25 mg, MnCl2×4H2O, 1.6 mg, ZnSO4×7H2O, 0.3 mg, KH2PO4, 3.0 g, K2HPO4, 12.0 g, (NH4)2SO4, 5 g, NaCl, 0.6 g, FeSO4×7H2O, 0.002 g, Na3-citrate×2H2O, 1 g, glucose, 5 g, tryptone, 1 g, yeast extract, 0.5 g), centrifuged down at an absorption of approx. 0.8 at 600 nm, washed in 50 mM Tris pH 7.5, and centrifuged down once again. The cells were resuspended in 50 mM Tris/Cl, pH 7.5, 2 mM dithiothreitol, 0.5 mM phenylmethylsulfonyl fluoride and disrupted in a French press. The supernatant from a further centrifugation was used as the enzyme extract in the test. The enzyme activity was determined, in a mixture containing 50 mM Tris/Cl, pH 7.6, 1 mM homoserine and 0.1 mM succinyl-CoA, by photometrically quantifying, by means of the decrease in the extinction at 232 nm, the coenzyme A formed in the reaction, following the method described by Kredich and Tomkins for determining the activity of serine acetyltransferases (Kredich N. M. and Tomkins G. M., J. Biol. Chem. 241, 4955-4965 (1966)). The effect of added L-methionine on the activity was determined and the inhibitability was quantified as a Ki value. The Ki which is determined is the concentration of L-methionine at which the activity of the homoserine transsuccinylase is only 50% of its activity in the absence of L-methionine.

Molecule	Activity (U/mg) [1] [U/mg]	Activity (U/mg) [2] [U/mg]
pKP413GAP: E. coli wild-type homoserine transsuccinylase (MetA; Asp101, Tyr294) expressed from starting plasmid pKP413GAP (protein, UniProt P07623 2-309, looked up) Homoserine …: PIRVPDELPAVNFLREENVFVMTTSRASGQEIRPLKVLILNLMPKKIETENQFLRLLSNSPLQVDIQLLRIDSRESRNTPAEHLNNFYCNFEDIQDQNFDGLIVTGAPLGLVEFNDVAYWPQIKQVLEWSKDHVTSTLFVCWAVQAALNILYGIPKQTRTEKLSGVYEHHILHPHALLTRGFDDSFLAPHSRYADFPAALIRDYTDLEILAETEEGDAYLFASKDKRIAFVTGHPEYDAQTLAQEFFRDVEAGLDPDVPYNYFPHNDPQNTPRASWRSHGNLLFTNWLNYYVYQITPYDLRHMNPTLD	0.62	0.155
pSLmetAN: MetA variant with Asn instead of Asp at position 101 (protein, UniProt P07623 2-309, looked up, variant D101N) Homoserine …: PIRVPDELPAVNFLREENVFVMTTSRASGQEIRPLKVLILNLMPKKIETENQFLRLLSNSPLQVDIQLLRIDSRESRNTPAEHLNNFYCNFEDIQDQNFNGLIVTGAPLGLVEFNDVAYWPQIKQVLEWSKDHVTSTLFVCWAVQAALNILYGIPKQTRTEKLSGVYEHHILHPHALLTRGFDDSFLAPHSRYADFPAALIRDYTDLEILAETEEGDAYLFASKDKRIAFVTGHPEYDAQTLAQEFFRDVEAGLDPDVPYNYFPHNDPQNTPRASWRSHGNLLFTNWLNYYVYQITPYDLRHMNPTLD	0.30	0.050
pSLmetA*P: MetA variant with Pro instead of Tyr at position 294 (protein, UniProt P07623 2-309, looked up, variant Y294P) Homoserine …: PIRVPDELPAVNFLREENVFVMTTSRASGQEIRPLKVLILNLMPKKIETENQFLRLLSNSPLQVDIQLLRIDSRESRNTPAEHLNNFYCNFEDIQDQNFDGLIVTGAPLGLVEFNDVAYWPQIKQVLEWSKDHVTSTLFVCWAVQAALNILYGIPKQTRTEKLSGVYEHHILHPHALLTRGFDDSFLAPHSRYADFPAALIRDYTDLEILAETEEGDAYLFASKDKRIAFVTGHPEYDAQTLAQEFFRDVEAGLDPDVPYNYFPHNDPQNTPRASWRSHGNLLFTNWLNYYVPQITPYDLRHMNPTLD	0.15	0.020
pSLmetA*K: MetA variant with Lys instead of Tyr at position 294 (protein, UniProt P07623 2-309, looked up, variant Y294K) Homoserine …: PIRVPDELPAVNFLREENVFVMTTSRASGQEIRPLKVLILNLMPKKIETENQFLRLLSNSPLQVDIQLLRIDSRESRNTPAEHLNNFYCNFEDIQDQNFDGLIVTGAPLGLVEFNDVAYWPQIKQVLEWSKDHVTSTLFVCWAVQAALNILYGIPKQTRTEKLSGVYEHHILHPHALLTRGFDDSFLAPHSRYADFPAALIRDYTDLEILAETEEGDAYLFASKDKRIAFVTGHPEYDAQTLAQEFFRDVEAGLDPDVPYNYFPHNDPQNTPRASWRSHGNLLFTNWLNYYVKQITPYDLRHMNPTLD	0.14	0.048
pKP446: MetA variant with Cys instead of Tyr at position 294 (protein, UniProt P07623 2-309, looked up, variant Y294C) Homoserine …: PIRVPDELPAVNFLREENVFVMTTSRASGQEIRPLKVLILNLMPKKIETENQFLRLLSNSPLQVDIQLLRIDSRESRNTPAEHLNNFYCNFEDIQDQNFDGLIVTGAPLGLVEFNDVAYWPQIKQVLEWSKDHVTSTLFVCWAVQAALNILYGIPKQTRTEKLSGVYEHHILHPHALLTRGFDDSFLAPHSRYADFPAALIRDYTDLEILAETEEGDAYLFASKDKRIAFVTGHPEYDAQTLAQEFFRDVEAGLDPDVPYNYFPHNDPQNTPRASWRSHGNLLFTNWLNYYVCQITPYDLRHMNPTLD	0.49	0.133
pSLmetA*Q: MetA variant with Gln instead of Tyr at position 294 (protein, UniProt P07623 2-309, looked up, variant Y294Q) Homoserine …: PIRVPDELPAVNFLREENVFVMTTSRASGQEIRPLKVLILNLMPKKIETENQFLRLLSNSPLQVDIQLLRIDSRESRNTPAEHLNNFYCNFEDIQDQNFDGLIVTGAPLGLVEFNDVAYWPQIKQVLEWSKDHVTSTLFVCWAVQAALNILYGIPKQTRTEKLSGVYEHHILHPHALLTRGFDDSFLAPHSRYADFPAALIRDYTDLEILAETEEGDAYLFASKDKRIAFVTGHPEYDAQTLAQEFFRDVEAGLDPDVPYNYFPHNDPQNTPRASWRSHGNLLFTNWLNYYVQQITPYDLRHMNPTLD	0.21	0.065
pSLmetA*A: MetA variant with Ala instead of Tyr at position 294 (protein, UniProt P07623 2-309, looked up, variant Y294A) Homoserine …: PIRVPDELPAVNFLREENVFVMTTSRASGQEIRPLKVLILNLMPKKIETENQFLRLLSNSPLQVDIQLLRIDSRESRNTPAEHLNNFYCNFEDIQDQNFDGLIVTGAPLGLVEFNDVAYWPQIKQVLEWSKDHVTSTLFVCWAVQAALNILYGIPKQTRTEKLSGVYEHHILHPHALLTRGFDDSFLAPHSRYADFPAALIRDYTDLEILAETEEGDAYLFASKDKRIAFVTGHPEYDAQTLAQEFFRDVEAGLDPDVPYNYFPHNDPQNTPRASWRSHGNLLFTNWLNYYVAQITPYDLRHMNPTLD	0.26	0.063
pSLmetA*L: MetA variant with Leu instead of Tyr at position 294 (protein, UniProt P07623 2-309, looked up, variant Y294L) Homoserine …: PIRVPDELPAVNFLREENVFVMTTSRASGQEIRPLKVLILNLMPKKIETENQFLRLLSNSPLQVDIQLLRIDSRESRNTPAEHLNNFYCNFEDIQDQNFDGLIVTGAPLGLVEFNDVAYWPQIKQVLEWSKDHVTSTLFVCWAVQAALNILYGIPKQTRTEKLSGVYEHHILHPHALLTRGFDDSFLAPHSRYADFPAALIRDYTDLEILAETEEGDAYLFASKDKRIAFVTGHPEYDAQTLAQEFFRDVEAGLDPDVPYNYFPHNDPQNTPRASWRSHGNLLFTNWLNYYVLQITPYDLRHMNPTLD	0.29	0.070
pSLmetA*0: MetA variant in which amino acid 294 is deleted (protein, UniProt P07623 2-309, looked up, variant Y294*) Homoserine …: PIRVPDELPAVNFLREENVFVMTTSRASGQEIRPLKVLILNLMPKKIETENQFLRLLSNSPLQVDIQLLRIDSRESRNTPAEHLNNFYCNFEDIQDQNFDGLIVTGAPLGLVEFNDVAYWPQIKQVLEWSKDHVTSTLFVCWAVQAALNILYGIPKQTRTEKLSGVYEHHILHPHALLTRGFDDSFLAPHSRYADFPAALIRDYTDLEILAETEEGDAYLFASKDKRIAFVTGHPEYDAQTLAQEFFRDVEAGLDPDVPYNYFPHNDPQNTPRASWRSHGNLLFTNWLNYYVQITPYDLRHMNPTLD	0.33	0.085
